Measurements reported in paper PMC8444450 (2021).

Key:
[1] = target: T1, SARS-CoV-2 spike receptor-binding domain (amino acids 333–529), bacteria-expressed and refolded (SARS-CoV-2, UniProt P0DTC2 333-529); assay: SPR
[2] = target: T1, SARS-CoV-2 spike receptor-binding …; assay: SPR; remark: listed apart in the source

Row | Binder | koff [1] | Kd [2]
1 | sybody Sb15 (VHH) VHH: QVQLVESGGGLVQAGGSLRLSCAASGFPVKNFEMEWYRKAPGKEREWVAAIQSGGVETYYADSVKGRFTISRDNAKNTVYLQMNSLKPEDTAVYYCFVYVGRSYIGQGTQVTVS | 0.011 s⁻¹ | –
2 | sybody Sb68 (VHH) VHH: QVQLVESGGGSVQAGGSLRLSCAASGSISSITYLGWFRQAPGKEREGVAALITVNGHTYYADSVKGRFTVSLDNAKNTVYLQMNSLKPEDTALYYCAAAAWGYAWPLHQDDYWYWGQGTQVTVSA | 0.023 s⁻¹ | –
3 | sybody Sb16 (VHH) VHH: QVQLVESGGGLVQAGGSLRLSCAASGFPVAYKTMWWYRQAPGKEREWVAAIESYGIKWTRYADSVKGRFTISRDNAKNTVYLQMNSLKPEDTAVYYCIVWVGAQYHGQGTQVTVSA | 0.02 s⁻¹ | 40.6 nM
4 | sybody Sb14 (VHH) VHH: QVQLVESGGGLVQAGGSLRLSCAASGFPVQAREMEWYRQAPGKEREWVAAIKSTGTYTAYAYSVKGRFTISRDNAKNTVYLQMNSLKPEDTAVYYCYVYVGSSYIGQGTQVTVSA | 0.007 s⁻¹ | 13.8 nM
